Assay results published in the RNAGym collection of RNA variant scans (doi:10.7554/elife.90254).

B1: LINE1-full (parent)
chain: UACGUAGGUGGUUUUCCCCUGAUAGUGCUAAGGGGGCCUGGAAGUUUGGACUGGGCAGAGCUCAACACAGCGUGGCAAAGUGGCUGUGGCUAGACUGCCUCUCUGGAUUCCUCGUCACUCAGCAGGGCAUCUCUGAGAGAAAUGCC

Variants of: B1
Test: self-cleavage, relative activity (ratio to wild type); higher = more cleavage; in vitro, sequencing; the parent is a self-cleaving ribozyme

Row | Variant | self-cleavage
1 | UACGUAGGUGGUUUUCCCCUGAUAGUGCUAAGGGGGCCGGGAAGUUUGGACUGGGCAGAGCUCAACACAGCGUGGCAAAGUGGCUGUGGCUAGACUGCCUCUCUGGAUUCCUCGUCACUCAGAAGGGCAUCUCUGAGAGAAAUGCC [U39G C123A] | 0.91
2 | UACGUAGGUGGUUUUCCCCUGAUAGUGCUAAGGGGGCCGGGAAGCUUGGACUGGGCAGAGCUCAACACAGCGUGGCAAAGUGGCUGUGGCUAGACUGCCUCUCUGGAUUCCUCGUCACUCAGCAGGGCAUCUCUGAGAGAAAUGCC [U39G U45C] | 1.82
3 | UACGUAGGUGGUUUUCCCCUGAUAGUGCUAAGGGGGCCGGGAAGUCUGGACUGGGCAGAGCUCAACACAGCGUGGCAAAGUGGCUGUGGCUAGACUGCCUCUCUGGAUUCCUCGUCACUCAGCAGGGCAUCUCUGAGAGAAAUGCC [U39G U46C] | 1.36
4 | UACGUAGGUGGUUUUCCCCUGAUAGUGCUAAGGGGGCCGGGAAGUUUGGACAGGGCAGAGCUCAACACAGCGUGGCAAAGUGGCUGUGGCUAGACUGCCUCUCUGGAUUCCUCGUCACUCAGCAGGGCAUCUCUGAGAGAAAUGCC [U39G U52A] | 1.16
5 | UACGUAGGUGGUUUUCCCCUGAUAGUGCUAAGGGGGCCGGGAAGUUUGGACUGGGCAGAGCCCAACACAGCGUGGCAAAGUGGCUGUGGCUAGACUGCCUCUCUGGAUUCCUCGUCACUCAGCAGGGCAUCUCUGAGAGAAAUGCC [U39G U62C] | 0.1
6 | UACGUAGGUGGUUUUCCCCUGAUAGUGCUAAGGGGGCCGGGAAGUUUGGACUGGGCAGAGCUCAACACAGCGAGGCAAAGUGGCUGUGGCUAGACUGCCUCUCUGGAUUCCUCGUCACUCAGCAGGGCAUCUCUGAGAGAAAUGCC [U39G U73A] | 1.88
7 | UACGUAGGUGGUUUUCCCCUGAUAGUGCUAAGGGGGCCGGGAAGUUUGGACUGGGCAGAGCUCAACACAGCGUGGCAAAGAGGCUGUGGCUAGACUGCCUCUCUGGAUUCCUCGUCACUCAGCAGGGCAUCUCUGAGAGAAAUGCC [U39G U81A] | 1.62
8 | UACGUAGGUGGUUUUCCCCUGAUAGUGCUAAGGGGGCCGGGAAGUUUGGACUGGGCAGAGCUCAACACAGCGUGGCAAAGUGGCUGUGGCUAGACCGCCUCUCUGGAUUCCUCGUCACUCAGCAGGGCAUCUCUGAGAGAAAUGCC [U39G U96C] | 0.11
9 | UACGUAGGUGGUUUUCCCCUGAUAGUGCUAAGGGGGCCGGGAAGUUUGGACUGGGCAGAGCUCAACACAGCGUGGCAAAGUGGCUGUGGCUAGACUGCCUCCCUGGAUUCCUCGUCACUCAGCAGGGCAUCUCUGAGAGAAAUGCC [U39G U102C] | 1.34
10 | UACGUAGGUGGUUUUCCCCUGAUAGUGCUAAGGGGGCCGGGAAGUUUGGACUGGGCAGAGCUCAACACAGCGUGGCAAAGUGGCUGUGGCUAGACUGCCUCUCUGGAUUCCUCGACACUCAGCAGGGCAUCUCUGAGAGAAAUGCC [U39G U115A] | 1.31
11 | UACGUAGGUGGUUUUCCCCUGAUAGUGCUAAGGGGGCCUAGAAGUUUGGACUGGGCAGAGCUCAACACAGCGUGGCAAAGUGGCUGUGGCUAGACUGCCUCUCUGGAUUCCUCGUCACUCAGCAGGGCAUCUCUGAGAGAAAUGCC [G40A] | 1.16
12 | UACGUAGGUGGUUUUCCCCUGAUAGUGCUAAGGGGGCCUAGAAGUUUGGUCUGGGCAGAGCUCAACACAGCGUGGCAAAGUGGCUGUGGCUAGACUGCCUCUCUGGAUUCCUCGUCACUCAGCAGGGCAUCUCUGAGAGAAAUGCC [G40A A50U] | 0.84
13 | UACGUAGGUGGUUUUCCCCUGAUAGUGCUAAGGGGGCCUAGAAGUUUGGACUGGGCGGAGCUCAACACAGCGUGGCAAAGUGGCUGUGGCUAGACUGCCUCUCUGGAUUCCUCGUCACUCAGCAGGGCAUCUCUGAGAGAAAUGCC [G40A A57G] | 0.4
14 | UACGUAGGUGGUUUUCCCCUGAUAGUGCUAAGGGGGCCUAGAAGUUUGGACUGGGCAGUGCUCAACACAGCGUGGCAAAGUGGCUGUGGCUAGACUGCCUCUCUGGAUUCCUCGUCACUCAGCAGGGCAUCUCUGAGAGAAAUGCC [G40A A59U] | 0.54
15 | UACGUAGGUGGUUUUCCCCUGAUAGUGCUAAGGGGGCCUAGAAGUUUGGACUGGGCAGAGCUCAGCACAGCGUGGCAAAGUGGCUGUGGCUAGACUGCCUCUCUGGAUUCCUCGUCACUCAGCAGGGCAUCUCUGAGAGAAAUGCC [G40A A65G] | 0.04
16 | UACGUAGGUGGUUUUCCCCUGAUAGUGCUAAGGGGGCCUAGAAGUUUGGACUGGGCAGAGCUCAACACAGCGUGGCAGAGUGGCUGUGGCUAGACUGCCUCUCUGGAUUCCUCGUCACUCAGCAGGGCAUCUCUGAGAGAAAUGCC [G40A A78G] | 0.77
17 | UACGUAGGUGGUUUUCCCCUGAUAGUGCUAAGGGGGCCUAGAAGUUUGGACUGGGCAGAGCUCAACACAGCGUGGCAAAGUGGCUGUGGCUAGACUGCCUCUCUGGGUUCCUCGUCACUCAGCAGGGCAUCUCUGAGAGAAAUGCC [G40A A107G] | 1.17
18 | UACGUAGGUGGUUUUCCCCUGAUAGUGCUAAGGGGGCCUAGAAGUUUGGACUGGGCAGAGCUCAACACAGCGUGGCAAAGUGGCUGUGGCUAGACUGCCUCUCUGGAUUCCUCGUCUCUCAGCAGGGCAUCUCUGAGAGAAAUGCC [G40A A117U] | 1.43
19 | UACGUAGGUGGUUUUCCCCUGAUAGUGCUAAGGGGGCCUAGAAGUUUGGACUGGGCAGAGCUCAACACAGCGUGGCAAAGUGGCUGUGGCUAGACUGCCUCUCUGGAUUCCUCGUCACUCAGCAGGGCGUCUCUGAGAGAAAUGCC [G40A A129G] | 1.42
20 | UACGUAGGUGGUUUUCCCCUGAUAGUGCUAAGGGGGCCUAGAAGUUUGGACUGGGCAGAGCUCAACACAGCGUGGCAAAGUGGCUGUGGCUAGACUGCCUCUCUGGAUUCCUCGUCACUCAGCAGGGCUUCUCUGAGAGAAAUGCC [G40A A129U] | 0.46

Row | Variant | self-cleavage
21 | UACGUAGGUGGUUUUCCCCUGAUAGUGCUAAGGGGGCCUAGAAGUUUGGACUGGGCAGAGCUCAACACAGCGUGGCAAAGUGGCUGUGGCUAGACUGCCUCUCUGGAUUCCUCGUCACUCAGCAGGGCAUCUCUGUGAGAAAUGCC [G40A A136U] | 1.04
22 | UACGUAGGUGGUUUUCCCCUGAUAGUGCUAAGGGGGCCUAGAAGUUUGGACUGGGCAGAGCUCAACACAGCGUGGCAAAGUGGCUGUGGCUAGACUGCCUCUCUGGAUUCCUCGUCACUCAGCAGGGCAUCUCUGAGGGAAAUGCC [G40A A138G] | 1.49
23 | UACGUAGGUGGUUUUCCCCUGAUAGUGCUAAGGGGGCCUAGAAGUUUGGACUGGGCAGAGCUCAACACAGCGUGGCAAAGUGGCUGUGGCUAGACUGCCUCUCUGGAUUCCUCGUCACUCAGCAGGGCAUCUCUGAGAGAGAUGCC [G40A A141G] | 1.06
24 | UACGUAGGUGGUUUUCCCCUGAUAGUGCUAAGGGGGCCUAGAAGUUUGGACUGGGCAGAGCUCAACACAGCGUGGCAAAGUGGCUGUGGCUAGACUGCCUCUCUGGAUUCCUCGUCACUCAGCAGGGCAUCUCUGAGAGAAGUGCC [G40A A142G] | 0.79
25 | UACGUAGGUGGUUUUCCCCUGAUAGUGCUAAGGGGGCCUAGAAGUUUGGACUGGGCAGAUCUCAACACAGCGUGGCAAAGUGGCUGUGGCUAGACUGCCUCUCUGGAUUCCUCGUCACUCAGCAGGGCAUCUCUGAGAGAAAUGCC [G40A G60U] | 0.02
26 | UACGUAGGUGGUUUUCCCCUGAUAGUGCUAAGGGGGCCUAGAAGUUUGGACUGGGCAGAGCUCAACACAGCGUGGCAAAGUGGCUGUAGCUAGACUGCCUCUCUGGAUUCCUCGUCACUCAGCAGGGCAUCUCUGAGAGAAAUGCC [G40A G88A] | 0.04
27 | UACGUAGGUGGUUUUCCCCUGAUAGUGCUAAGGGGGCCUAGAAGUUUGGACAGGGCAGAGCUCAACACAGCGUGGCAAAGUGGCUGUGGCUAGACUGCCUCUCUGGAUUCCUCGUCACUCAGCAGGGCAUCUCUGAGAGAAAUGCC [G40A U52A] | 1.25
28 | UACGUAGGUGGUUUUCCCCUGAUAGUGCUAAGGGGGCCUAGAAGUUUGGACCGGGCAGAGCUCAACACAGCGUGGCAAAGUGGCUGUGGCUAGACUGCCUCUCUGGAUUCCUCGUCACUCAGCAGGGCAUCUCUGAGAGAAAUGCC [G40A U52C] | 1.23
29 | UACGUAGGUGGUUUUCCCCUGAUAGUGCUAAGGGGGCCUAGAAGUUUGGACUGGGCAGAGCCCAACACAGCGUGGCAAAGUGGCUGUGGCUAGACUGCCUCUCUGGAUUCCUCGUCACUCAGCAGGGCAUCUCUGAGAGAAAUGCC [G40A U62C] | 0.04
30 | UACGUAGGUGGUUUUCCCCUGAUAGUGCUAAGGGGGCCUAGAAGUUUGGACUGGGCAGAGCUCAACACAGCGAGGCAAAGUGGCUGUGGCUAGACUGCCUCUCUGGAUUCCUCGUCACUCAGCAGGGCAUCUCUGAGAGAAAUGCC [G40A U73A] | 0.81
31 | UACGUAGGUGGUUUUCCCCUGAUAGUGCUAAGGGGGCCUAGAAGUUUGGACUGGGCAGAGCUCAACACAGCGUGGCAAAGAGGCUGUGGCUAGACUGCCUCUCUGGAUUCCUCGUCACUCAGCAGGGCAUCUCUGAGAGAAAUGCC [G40A U81A] | 1.71
32 | UACGUAGGUGGUUUUCCCCUGAUAGUGCUAAGGGGGCCUAGAAGUUUGGACUGGGCAGAGCUCAACACAGCGUGGCAAAGUGGCGGUGGCUAGACUGCCUCUCUGGAUUCCUCGUCACUCAGCAGGGCAUCUCUGAGAGAAAUGCC [G40A U85G] | 0.04
33 | UACGUAGGUGGUUUUCCCCUGAUAGUGCUAAGGGGGCCUAGAAGUUUGGACUGGGCAGAGCUCAACACAGCGUGGCAAAGUGGCUGAGGCUAGACUGCCUCUCUGGAUUCCUCGUCACUCAGCAGGGCAUCUCUGAGAGAAAUGCC [G40A U87A] | 0.06
34 | UACGUAGGUGGUUUUCCCCUGAUAGUGCUAAGGGGGCCUAGAAGUUUGGACUGGGCAGAGCUCAACACAGCGUGGCAAAGUGGCUGUGGCUAGACUGCCCCUCUGGAUUCCUCGUCACUCAGCAGGGCAUCUCUGAGAGAAAUGCC [G40A U100C] | 1.59
35 | UACGUAGGUGGUUUUCCCCUGAUAGUGCUAAGGGGGCCUAGAAGUUUGGACUGGGCAGAGCUCAACACAGCGUGGCAAAGUGGCUGUGGCUAGACUGCCUCUCUGGAUCCCUCGUCACUCAGCAGGGCAUCUCUGAGAGAAAUGCC [G40A U109C] | 0.88
36 | UACGUAGGUGGUUUUCCCCUGAUAGUGCUAAGGGGGCCUAGAAGUUUGGACUGGGCAGAGCUCAACACAGCGUGGCAAAGUGGCUGUGGCUAGACUGCCUCUCUGGAUUCCUCGUCACACAGCAGGGCAUCUCUGAGAGAAAUGCC [G40A U119A] | 0.94
37 | UACGUAGGUGGUUUUCCCCUGAUAGUGCUAAGGGGGCCUAGAAGUUUGGACUGGGCAGAGCUCAACACAGCGUGGCAAAGUGGCUGUGGCUAGACUGCCUCUCUGGAUUCCUCGUCACUCAGCAGGGCAUCCCUGAGAGAAAUGCC [G40A U132C] | 1.03
38 | UACGUAGGUGGUUUUCCCCUGAUAGUGCUAAGGGGGCCUAGAAGUUUGGACUGGGCAGAGCUCAACACAGCGUGGCAAAGUGGCUGUGGCUAGACUGCCUCUCUGGAUUCCUCGUCACUCAGCAGGGCAUCUCUGAGAGAAACGCC [G40A U143C] | 1.26
39 | UACGUAGGUGGUUUUCCCCUGAUAGUGCUAAGGGGGCCUCGAAGUUUGGACUGGGCAGAGCUCAACACAGCGUGGCAAAGUGGCUGUGGCUAGACUGCCUCUCUGGAUUCCUCGUCACUCAGCAGGGCAUCUCUGAGAGAAAUGCC [G40C] | 1.12
